Experimental findings from patent US20210087522 are described below.

The target of data set [1] is T1, SsPCP, PCP of a thaxtomin cluster from Streptomyces scabiei 87.22.
T1 chain: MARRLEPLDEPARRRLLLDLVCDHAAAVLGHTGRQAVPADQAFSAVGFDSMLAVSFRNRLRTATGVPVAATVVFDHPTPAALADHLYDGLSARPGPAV

The target in data set [2] is T2, APNPCP, CP of an uncharacterized NRP/PK gene cluster from Anabaena.
T2 chain: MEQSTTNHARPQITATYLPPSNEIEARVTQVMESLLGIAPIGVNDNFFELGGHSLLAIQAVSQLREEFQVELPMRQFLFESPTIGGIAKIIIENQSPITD

Data set [3] deals with ScACP, ACP of a putative concanamycin gene cluster from Streptomyces coelicolor A(3)2.
Data set [4] concerns the target T3, MACP, CP of an uncharacterized NRP/PK gene cluster from M. aeruginosa NIES843.
T3 chain: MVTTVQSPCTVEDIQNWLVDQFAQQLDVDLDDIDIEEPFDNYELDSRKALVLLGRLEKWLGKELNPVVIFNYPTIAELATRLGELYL

The target in data set [5] is T4, SFACP, ACP of the FAS from Synechocystis.
T4 chain: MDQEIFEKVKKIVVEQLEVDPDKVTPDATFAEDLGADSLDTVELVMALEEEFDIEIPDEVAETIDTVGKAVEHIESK

For data set [6], the target named is T5, AFACP, ACP of the FAS from Anabaena.
T5 chain: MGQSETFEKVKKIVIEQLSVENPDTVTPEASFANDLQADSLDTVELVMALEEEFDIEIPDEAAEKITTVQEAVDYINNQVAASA

For data set [7], the target named is T6, FNsACP, homolog of ArCPNp from Fischerella.
T6 chain: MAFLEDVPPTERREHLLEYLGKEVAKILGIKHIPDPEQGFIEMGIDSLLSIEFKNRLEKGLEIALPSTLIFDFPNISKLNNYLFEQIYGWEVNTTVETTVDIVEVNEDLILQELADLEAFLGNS

For data set [8], the target named is T7, FNPCP, CP of an uncharacterized NRP gene cluster from Fischerella.
T7 chain: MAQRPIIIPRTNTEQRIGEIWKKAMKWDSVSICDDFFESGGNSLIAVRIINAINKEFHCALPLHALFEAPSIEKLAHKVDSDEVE

The target in data set [9] is T8, APACP, ACP of the glycolipid PKS in Anabaena.
T8 chain: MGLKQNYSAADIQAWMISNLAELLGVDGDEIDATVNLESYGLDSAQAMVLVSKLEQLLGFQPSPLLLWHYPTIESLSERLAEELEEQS

For data set [10], the target named is AprACP, ACP of the apratoxin (PK/NRP) gene cluster in Lyngbya sp.
The target in data set [11] is T9, FisPCP, PCP of the shinorine gene cluster from Fischerella.
T9 chain: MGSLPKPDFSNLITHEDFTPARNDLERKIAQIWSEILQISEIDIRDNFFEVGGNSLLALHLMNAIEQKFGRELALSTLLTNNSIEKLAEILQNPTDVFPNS

B1: FPPT, Sfp-like phosphopantetheinyl transferase (PPTase) from Fischerella sp. PCC9339 (protein)
chain: MGSETNHLWLTAPTNLTLLPDDVHVWRISLDRPESELQALQTTLSSDEIARAQRFYFEQHRQRFVAGRGILRTILGRYLGVEPQAVEFTYELRGKPLLADRFADSGVSFNLSHSQDLALCGVSRNRKIGIDVEYMRSVSDVEALAERFFAPREYEVVRSLPSNQQQQVFFRYWTCKEAYLKAIGVGIVQLEKVEISLTLEQPAKLITDEEWSLIELVPGDHYLGAVAIAGQNLDLKYWQY
As for B1, the “phosphopantetheinylation of CP (apo to holo), LC-MS; low activity” value in data set [1] was “FPPT shared the same substrate scope as SePPT with the exception of its low activity toward SsPCP”. The “relative activity (most active PPTase = 100%)” value in data set [1] is “FPPT was not competent to activate SsPCP, APACP, APNPCP, MACP, and ScACP”; in data set [4], “FPPT was not competent to activate SsPCP, APACP, APNPCP, MACP, and ScACP”. Moreover, the “phosphopantetheinylation of CP (apo to holo), LC-MS; no activity” value in data set [2], in [3] and in [4] was “FPPT shared the same substrate scope as SePPT with the exception of its low activity toward SsPCP” each time.

B2: SePPT, Sfp-like phosphopantetheinyl transferase (PPTase) from Synechococcus elongatus PCC7942 (protein)
chain: MQRPNPSDAVPVPSIPSCDRGPIPNPVTWRTSPEPLFLSAQTVHLWRCSLTRSLSSAEQAIVAADCDRAQAYGSNRRHQFLCGRWWLRQLLSLYLPEEPADFRFQLSPTGKPELPQSNLCFNLSHSGSTLLIAIAWQPVGVDVEQPRSRSWLALARRYFPSAELAAMQQSTDCDRWGLASWVCKEAWIKAQGRTLANSLRHLQCAWTANGQPRLSGLGSEESQVQLLQVDPQEQLWAAIAMPAGWNYQTWTAAIIRKNH
With B2, the “phosphopantetheinylation of CP (apo to holo), LC-MS; no activity” value is “SePPT showed no activity toward APNPCP, MACP, ScACP, and SsPCP” in data set [1]; “SePPT showed no activity toward APNPCP, MACP, ScACP, and SsPCP” in [2]; “SePPT showed no activity toward APNPCP, MACP, ScACP, and SsPCP” in data set [3]; “SePPT showed no activity toward APNPCP, MACP, ScACP, and SsPCP” in data set [4]. Moreover, the “relative activity (most active PPTase = 100%)” value in data set [5] and in data set [6] was “SePPT demonstrated strong activity toward two ACPs of FASs but no others” throughout.

B3: Sfp, phosphopantetheinyl transferase from Bacillus subtilis (protein)
chain: MKIYGIYMDRPLSQEENERFMTFISPEKREKCRRFYHKEDAHRTLLGDVLVRSVISRQYQLDKSDIRFSTQEYGKPCIPDLPDAHFNISHSGRWVIGAFDSQPIGIDIEKTKPISLEIAKRFFSKTEYSDLLAKDKDEQTDYFYHLWSMKESFIKQEGKGLSLPLDSFSVRLHQDGQVSIELPDSHSPCYIKTYEVDPGYKMAVCAAHPDFPEDITMVSYEELL
By Km is commonly meant the substrate concentration at which the rate is half of its maximum. As a reminder, the kcat is the number of substrate molecules converted per active site and unit of time at saturation. A word on the kcat/Km: it is the turnover number divided by the Michaelis constant. Consider B3, for which the Km in data set [1] was 7.9 µM; in data set [5] it was 2.5 µM; in [7], 10.9 µM; in [2], 12 µM; in [8], 11.7 µM; in [6], 11.6 µM. Also, the Km worked out at 15.3 µM in [9]; 8.3 µM in data set [3]; 6.7 µM in [4]; 9 µM in data set [10]; 14 µM in data set [11]. In addition, the kcat in data set [1] worked out at 0.278 s⁻¹; in data set [5], 0.0367 s⁻¹; in data set [7] it was 0.04 s⁻¹; in data set [2] it was 0.0367 s⁻¹; in [8], 0.242 s⁻¹; in [6], 0.163 s⁻¹. Also, the kcat in data set [9] is 0.368 s⁻¹; in data set [3], 0.253 s⁻¹; in [4], 0.085 s⁻¹; in data set [10] it was 0.0483 s⁻¹; in data set [11], 0.0283 s⁻¹. For the same protein, the kcat/Km in data set [1] worked out at 35000 M⁻¹ s⁻¹; in data set [5], 15000 M⁻¹ s⁻¹; in [7], 3330 M⁻¹ s⁻¹; in data set [2], 3330 M⁻¹ s⁻¹; in data set [8], 20000 M⁻¹ s⁻¹; in data set [6], 13300 M⁻¹ s⁻¹. Besides, the kcat/Km in [9] is 25000 M⁻¹ s⁻¹; in [3] it was 30000 M⁻¹ s⁻¹; in data set [4], 13300 M⁻¹ s⁻¹; in [10], 5000 M⁻¹ s⁻¹; in data set [11] it was 1670 M⁻¹ s⁻¹. Moreover, the “phosphopantetheinylation of CP (apo to holo), LC-MS” value in [1] is “APPT, AvPPT, MPPT and Sfp functionalized all substrates”; in data set [5] it was “APPT, AvPPT, MPPT and Sfp functionalized all substrates”; in data set [7], “APPT, AvPPT, MPPT and Sfp functionalized all substrates”; in data set [2] it was “APPT, AvPPT, MPPT and Sfp functionalized all substrates”; in data set [8] it was “APPT, AvPPT, MPPT and Sfp functionalized all substrates”; in data set [6] it was “APPT, AvPPT, MPPT and Sfp functionalized all substrates”. For the same protein, the “phosphopantetheinylation of CP (apo to holo), LC-MS” value in data set [9] is “APPT, AvPPT, MPPT and Sfp functionalized all substrates”; in [3], “APPT, AvPPT, MPPT and Sfp functionalized all substrates”; in [4], “APPT, AvPPT, MPPT and Sfp functionalized all substrates”; in data set [10] it was “APPT, AvPPT, MPPT and Sfp functionalized all substrates”; in data set [11] it was “APPT, AvPPT, MPPT and Sfp functionalized all substrates”. In addition, the “relative activity (most active PPTase = 100%)” value in data set [1] was “Among all PPTases, Sfp showed the highest relative activity toward ScACP and SsPCP”; in data set [3], “Among all PPTases, Sfp showed the highest relative activity toward ScACP and SsPCP”.
